Reference: article PMC9768791 (2022)
Numbering of substitutions follows the chain as printed.

Assays:
Assay in all cases: activation reporter or marker
[1] = biological target: T1, PREPp.G384A peptide on HLA-B*35:01 (human)
T1 peptide: FPLDVGSIVAY

[2] = biological target: T2, MED12Lp.T462K peptide on HLA-C*07:02 (human)
T2 peptide: SRVLHKLEV

[3] = biological target: T3, FCGRTp.A241T peptide on HLA-C*06:02 (human)
T3 peptide: LRFLRNGLT

[4] = biological target: T4, ICKp.P591T peptide on HLA-C*12:02 (human)
T4 peptide: RTHPGRPFF

[5] = biological target: T5, CDADC1p.R148Q peptide on HLA-A*24:02 (human)
T5 peptide: AGVNQISYW

[6] = biological target: T6, STRADAp.M189V peptide on HLA-A*01:01 (human)
T6 peptide: ALDYIHHVGYV

[7] = biological target: T7, UGGT2p.L880V peptide on HLA-C*12:02 (human)
T7 peptide: FVGPLDEDF

[8] = biological target: T8, ICKp.P591T peptide on HLA-B*39:01 (human)
T8 peptide: MRTHPGRPFF

[9] = biological target: T9, BRPF1p.L634F peptide on HLA-A*24:02 (human)
T9 peptide: EMQLTPFFI

[10] = biological target: T10, UAP1p.H469Y peptide on HLA-A*02:01 (human)
T10 peptide: ITADVNYNL

[11] = biological target: T11, USP34p.S2706F peptide on HLA-C*07:02 (human)
T11 peptide: FRSTRFLHI

[12] = biological target: T12, CLSTN1p.L289M peptide on HLA-C*03:03 (human)
T12 peptide: LAVFPNIHM

[13] = biological target: T13, MTHFRp.R238H peptide on HLA-B*40:01 (human)
T13 peptide: FEADTFFHFV

[14] = biological target: T14, STRADAp.M189V peptide on HLA-C*07:01 (human)
T14 peptide: KALDYIHHV

[15] = biological target: T15, GALNT2p.L14R peptide on HLA-B*35:01 (human)
T15 peptide: FAFRWVLGIAY

[16] = biological target: T16, PAPSS1p.Q144H peptide on HLA-C*07:02 (human)
T16 peptide: ARHIHEGASL

B1: TCR692 (TCR, V domains shown)
Valpha: GEDVEQSLFLSVREGDSSVINCTYTDSSSTYLYWYKQEPGAGLQLLTYIFSNMDMKQDQRLTVLLNKKDKHLSLRIADTQTGDSAIYFCAERNGGATNKLIFGTGTLLAVQP
Vbeta: DTEVTQTPKHLVMGMTNKKSLKCEQHMGHRAMYWYKQKAKKPPELMFVYSYEKLSINESVPSRFSPECPNSSLLNLHLHALQPEDSALYLCASSQDRTGAYSPLHFGNGTRLTVT
**Q.** Does B1 bind [1]?
**A.** Result: recognises

B2: TCR915 (TCR, V domains shown)
Valpha: AQKVTQAQTEISVVEKEDVTLDCVYETRDTTYYLFWYKQPPSGELVFLIRRNSFDEQNEISGRYSWNFQKSTSSFNFTITASQVVDSAVYFCALSDHNTDKLIFGTGTRLQVFP
Vbeta: NAGVTQTPKFRILKIGQSMTLQCTQDMNHNYMYWYRQDPGMGLKLIYYSVGAGITDKGEVPNGYNVSRSTTEDFPLRLELAAPSQTSVYFCASISDSYNEQFFGPGTRLTVL
**Q.** Does B2 bind [2]?
**A.** Result: recognises

B3: TCR1059 (TCR, V domains shown)
Valpha: SQQGEEDPQALSIQEGENATMNCSYKTSINNLQWYRQNSGRGLVHLILIRSNEREKHSGRLRVTLDTSKKSSSLLITASRAADTASYFCATDEGNFVFGPGTRLSVLP
Vbeta: NAGVTQTPKFQVLKTGQSMTLQCAQDMNHEYMSWYRQDPGMGLRLIHYSVGAGITDQGEVPNGYNVSRSTTEDFPLRLLSAAPSQTSVYFCASSPGQRETQYFGPGTRLLVL
**Q.** Does B3 bind [3]?
**A.** Result: recognises

B4: TCR689 (TCR, V domains shown)
Valpha: GIQVEQSPPDLILQEGANSTLRCNFSDSVNNLQWFHQNPWGQLINLFYIPSGTKQNGRLSATTVATERYSLLYISSSQTTDSGVYFCAVVLSYNTDKLIFGTGTRLQVFP
Vbeta: DVKVTQSSRYLVKRTGEKVFLECVQDMDHENMFWYRQDPGLGLRLIYFSYDVKMKEKGDIPEGYSVSREKKERFSLILESASTNQTSMYLCASSLSPPGYLETQYFGPGTRLLVL
**Q.** Does B4 bind [4]?
**A.** Result: recognises

B5: TCR1057 (TCR, V domains shown)
Valpha: GENVEQHPSTLSVQEGDSAVIKCTYSDSASNYFPWYKQELGKRPQLIIDIRSNVGEKKDQRIAVTLNKTAKHFSLHITETQPEDSAVYFCAASRGPAGGTSYGKLTFGQGTILTVHP
Vbeta: DTEVTQTPKHLVMGMTNKKSLKCEQHMGHRAMYWYKQKAKKPPELMFVYSYEKLSINESVPSRFSPECPNSSLLNLHLHALQPEDSALYLCASSQDAWWLSQPQHFGDGTRLSIL
**Q.** Does B5 bind [5]?
**A.** Result: recognises

B6: TCR829 (TCR, V domains shown)
Valpha: QKEVEQDPGPLSVPEGAIVSLNCTYSNSAFQYFMWYRQYSRKGPELLMYTYSSGNKEDGRFTAQVDKSSKYISLFIRDSQPSDSATYLCAMSPTYSGAGSYQLTFGKGTKLSVIP
Vbeta: GAVVSQHPSWVICKSGTSVKIECRSLDFQATTMFWYRQFPKQSLMLMATSNEGSKATYEQGVEKDKFLINHASLTLSTLTVTSAHPEDSSFYICSASLLGEGYEQYFGPGTRLTVT
**Q.** Does B6 bind [6]?
**A.** Result: recognises

B7: TCR682 (TCR, V domains shown)
Valpha: AQSVTQPDIHITVSEGASLELRCNYSYGATPYLFWYVQSPGQGLQLLLKYFSGDTLVQGIKGFEAEFKRSQSSFNLRKPSVHWSDAAEYFCAVAPDNYGQNFVFGPGTRLSVLP
Vbeta: DAMVIQNPRYQVTQFGKPVTLSCSQTLNHNVMYWYQQKSSQAPKLLFHYYDKDFNNEADTPDNFQSRRPNTSFCFLDIRSPGLGDAAMYLCATYSSGANVLTFGAGSRLTVL
**Q.** Does B7 bind [7]?
**A.** Result: recognises

B8: TCR687 (TCR, V domains shown)
Valpha: AQSVTQLGSHVSVSEGALVLLRCNYSSSVPPYLFWYVQYPNQGLQLLLKYTSAATLVKGINGFEAEFKKSETSFHLTKPSAHMSDAAEYFCAVTDSNYQLIWGAGTKLIIKP
Vbeta: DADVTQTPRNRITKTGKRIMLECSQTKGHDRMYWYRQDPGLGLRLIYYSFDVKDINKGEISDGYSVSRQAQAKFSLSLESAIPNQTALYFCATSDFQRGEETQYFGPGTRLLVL
**Q.** Does B8 bind [8]?
**A.** Result: recognises

B9: TCR955 (TCR, V domains shown)
Valpha: AQTVTQSQPEMSVQEAETVTLSCTYDTSESDYYLFWYKQPPSRQMILVIRQEAYKQQNATENRFSVNFQKAAKSFSLKISDSQLGDAAMYFCAYRRRNSGYALNFGKGTSLLVTP
Vbeta: DAGVTQSPTHLIKTRGQQVTLRCSPKSGHDTVSWYQQALGQGPQFIFQYYEEEERQRGNFPDRFSGHQFPNYSSELNVNALLLGDSALYLCASSLRVWSSYEQYFGPGTRLTVT
**Q.** Does B9 bind [9]?
**A.** Result: recognises

B10: TCR798 (TCR, V domains shown)
Valpha: AQSVTQLDSQVPVFEEAPVELRCNYSSSVSVYLFWYVQYPNQGLQLLLKYLSGSTLVKGINGFEAEFNKSQTSFHLRKPSVHISDTAEYFCAVSYSGSARQLTFGSGTQLTVLP
Vbeta: DAGVIQSPRHEVTEMGQEVTLRCKPISGHNSLFWYRQTMMRGLELLIYFNNNVPIDDSGMPEDRFSAKMPNASFSTLKIQPSEPRDSAVYFCASNPGGRGEKLFFGSGTQLSVL
**Q.** Does B10 bind [10]?
**A.** Result: recognises

B11: TCR903 (TCR, V domains shown)
Valpha: AQKVTQAQTEISVVEKEDVTLDCVYETRDTTYYLFWYKQPPSGELVFLIRRNSFDEQNEISGRYSWNFQKSTSSFNFTITASQVVDSAVYFCALSEETDRGSTLGRLYFGRGTQLTVWP
Vbeta: DTAVSQTPKYLVTQMGNDKSIKCEQNLGHDTMYWYKQDSKKFLKIMFSYNNKELIINETVPNRFSPKSPDKAHLNLHINSLELGDSAVYFCASSQDGGFEQFFGPGTRLTVL
**Q.** Does B11 bind [11]?
**A.** Result: recognises

B12: TCR696 (TCR, V domains shown)
Valpha: AQSVTQLDSHVSVSEGTPVLLRCNYSSSYSPSLFWYVQHPNKGLQLLLKYTSAATLVKGINGFEAEFKKSETSFHLTKPSAHMSDAAEYFCVVSAPDTGRRALTFGSGTRLQVQP
Vbeta: GAGVSQSPSNKVTEKGKDVELRCDPISGHTALYWYRQSLGQGLEFLIYFQGNSAPDKSGLPSDRFSAERTGGSVSTLTIQRTQQEDSAVYLCASSSGQGFTDTQYFGPGTRLTVL
**Q.** Does B12 bind [12]?
**A.** Result: recognises

B13: TCR814 (TCR, V domains shown)
Valpha: TQLLEQSPQFLSIQEGENLTVYCNSSSVFSSLQWYRQEPGEGPVLLVTVVTGGEVKKLKRLTFQFGDARKDSSLHITAAQPGDTGLYLCAGLLGDSGAGSYQLTFGKGTKLSVIP
Vbeta: DAGITQSPRHKVTETGTPVTLRCHQTENHRYMYWYRQDPGHGLRLIHYSYGVKDTDKGEVSDGYSVSRSKTEDFLLTLESATSSQTSVYFCAISESWMSSYNEQFFGPGTRLTVL
**Q.** Does B13 bind [13]?
**A.** Result: recognises

B14: TCR827 (TCR, V domains shown)
Valpha: GQQVMQIPQYQHVQEGEDFTTYCNSSTTLSNIQWYKQRPGGHPVFLIQLVKSGEVKKQKRLTFQFGEAKKNSSLHITATQTTDVGTYFCAAPDAGGTSYGKLTFGQGTILTVHP
Vbeta: NAGVTQTPKFQVLKTGQSMTLQCAQDMNHEYMSWYRQDPGMGLRLIHYSVGAGITDQGEVPNGYNVSRSTTEDFPLRLLSAAPSQTSVYFCASSPLNPYNEQFFGPGTRLTVL
**Q.** Does B14 bind [14]?
**A.** Result: recognises

B15: TCR802 (TCR, V domains shown)
Valpha: AQSVSQHNHHVILSEAASLELGCNYSYGGTVNLFWYVQYPGQHLQLLLKYFSGDPLVKGIKGFEAEFIKSKFSFNLRKPSVQWSDTAEYFCAVNLLTDSWGKFQFGAGTQVVVTP
Vbeta: EPEVTQTPSHQVTQMGQEVILRCVPISNHLYFYWYRQILGQKVEFLVSFYNNEISEKSEIFDDQFSVERPDGSNFTLKIRSTKLEDSAMYFCATMGSGGNEQFFGPGTRLTVL
**Q.** Does B15 bind [15]?
**A.** Result: recognises

B16: TCR952 (TCR, V domains shown)
Valpha: SQQGEEDPQALSIQEGENATMNCSYKTSINNLQWYRQNSGRGLVHLILIRSNEREKHSGRLRVTLDTSKKSSSLLITASRAADTASYFCATDEVGDMRFGAGTRLTVKP
Vbeta: B15 Vbeta with T94I, M95S, G98L, G99Y
**Q.** Does B16 bind [16]?
**A.** Result: recognises
